How the values were obtained:
[1] = system: cytochrome c; assay: Cytochrome c release after NMDA excitotoxicity; format: cell-based, mouse; conditions: NMDA 500 μM for 5 min, 4 hrs
Procedure: FIG. 53—Immunoblot showing release of CYT C. Mouse cortical neurons over-expressing GFP, GFP-Iduna or GFP-Iduna-YRAA were subjected to NMDA-excitotoxicity (500 μM for 5 min) on DIV 14. Following subcellular fractionation into mitochondrial and cytosolic (post-mitochondrial) fractions, CYT C release was monitored 4 hrs following NMDA stimulation. COX IV was used as a marker for mitochondria and GAPDH was used a marker for cytosol. Data were repeated three times with similar results.
FIG. 54—Quantification of cytochrome c release from mitochondria following NMDA-toxicity. […] Values of optical density were quantified using Image J software and the data were normalized to the values of GAPDH in the cytosol.

[2] = system: cortical neurons; assay: Calcium imaging and mitochondrial Ca2+ uptake; format: cell-based, mouse
Procedure: Calcium Imaging: Neuronal cells were plated on 17 mm glass cover slips, pre-coated with poly-L-ornithine (0.1 mg/ml). On DIV 14, the cultures were loaded with calcium sensitive dye Fluo-5f (2.5 μM, dissolved in pleuronic acid/DMSO solution) for 45 min at 37° C. and thereafter placed on a thermostatically confocal microscopic stage (Carl Zeiss). HEPES balanced salt solution (HBSS: NaCl 137 mM, KCl 5 mM, HEPES 20 mM, glucose 10 mM, CaCl2 1.4 mM, NaHCO3 3 mM, Na2HPO4 0.6 mM, KH2PO4 0.4 mM, pH 7.4) was superfused to the cultures for 100 s to obtain a steady base-line. NMDA (500 μM for 5 min) was used to induce intracellular calcium influx. Florescence values were monitored at every 10 s and calculated using LSM 510 Meta software and represent the changes in cellular calcium.
Measurements of Mitochondrial Ca^2+-uptake Capacity: Extramitochondrial free Ca^2+ was monitored in the presence of isolated mitochondria or digitonin-permeabilized cells, using an indicator of extramitochondrial free Ca^2+ (Calcium green-5N, Invitrogen). […] Fluorescence was continuously monitored at an excitation/emission at 488/532 nm respectively. […] Ca^2+ uptake was monitored by addition of 50 μM CaCl2 to the assay medium using a Hamilton syringe.

[3] = system: primary cortical neurons; assay: NMDA excitotoxicity cell death in primary cortical neurons; format: cell-based, mouse; conditions: NMDA 100 μM for 5 min, Iduna overexpression
Procedure: Primary Neuronal Culture Preparation: Primary cortical cell cultures were prepared from gestational day 15 mouse embryos as previously described. Experiments were performed at DIV (day in vitro) 14. Under these conditions, neurons represent 90% of the cells in the culture. Mature neurons were washed with control salt solution (CSS) containing 120 mM NaCl, 5.4 mM KCl, 1.8 mM CaCl2, 25 mM Tris-HCl pH 7.4 and 15 mM D-glucose. To induce NMDA-mediated […], 50 μM NMDA and 10 μM glycine in CSS solution was applied to the cells for 5 min, then the cells were washed and re-supplemented with minimum essential medium containing 10% horse serum. […]
Cell Death Assessment: Following exposure of neuronal cultures to the various treatments neuronal survival was quantified and presented as percent of cell death. Percent cell death was determined as the ratio of live-to-dead cells compared with the percent cell death in control wells to account for cell death attributable to mechanical stimulation of the cultures. Quantification of neuronal survival was determined by staining treated cultures with 5 μM Hoechst 33342 and 2 μM propidium iodide (PI) (Invitrogen, Carlsbad, Calif.). […] The numbers of total and dead (PI positive) cells were counted by automated computer assisted software (Axiovision 4.6, Zeiss, Germany). […]

[4] = system: MCF7 cells; assay: Determination of apurinic/apyrimidinic (AP) sites; format: cell-based, human; conditions: 1 h
Procedure: Determination of apurinic/apyrimidinic (AP) sites. The amount of AP sites in genomic DNA was monitored by a DNA damage quantification kit (BioVision). Briefly, cells were treated with either DMSO or 500 μM MNNG for 15 min, and then replaced with normal growth media. After 1 h, cells were scraped and harvested at 500×g for 5 min and washed once with PBS. Genomic DNA was isolated using a Biovision Genomic DNA Isolation Kit (BioVision) and then AP sites on the 0.5 μg of genomic DNA was labeled with biotin by the Aldehyde Reactive Probe (ARP) reagent (supplied with the DNA damage quantification kit) for 1 h at 37° C. To precipitate the biotin-tagged DNA, sample was mixed with TE buffer containing 2% glycogen and then sequentially incubated with ice cold 70% ethanol for 30 min at −20° C. […] To determine of the number of AP sites in DNA, samples were dissolved in TE buffer and then transferred into 96 well plate with DNA binding buffer (supplied with the DNA damage quantification kit). After 12 h, samples were washed five times with DNA washing buffer (supplied with the DNA damage quantification kit) and then biotin labeled AP sites were quantified using an avidin-biotin assay. Each sample and standards (supplied with a DNA damage quantification kit) were run in triplicate and the OD was measured at 650 nm using a 96-well plate reader (SpectraMax Plus384 Microplate Reader).

B1: Iduna: novel NMDA-induced cell survival protein, PAR-dependent E3 ligase; 359 amino acids (protein)
chain: MEMAGCGEIDHSINMLPTNKKANESCSNTAPSLTVPECAICLQTCVHPVSLPCKHVFCYLCVKGASWLGKRCALCRQEIPEDFLDKPTLLSPEELKAASRGNGEYAWYYEGRNGWWQYDERTSRELEDAFSKGKKNTEMLIAGFLYVADLENMVQYRRNEHGRRRKIKRDIIDIPKKGVAGLRLDCDTNTVNLARESSADGADSGSAQTGASVQLAVPSSTRPLTSVDGQLTSPVTPSPDAGISLEDSFAHLQLSGDSIAERSHRGEGEEDHESPSSGRVPDTSVEETESDASSDSEDAPVVVAQHSLTQQRPLVPNGNQTVADQSDRSGTDRSVAGGGTMSVNVRSRRPDGQCTVIEV
cytochrome c translocation from mitochondria to the cytoplasm [1]: reduction of cytochrome c translocation from mitochondria to the cytoplasm | mitochondrial calcium uptake ([2]; Calcium green-5N): does not interfere with mitochondrial calcium uptake | NMDA-induced calcium influx ([2]; fluo-5F, NMDA 500 μM 5 min): does not interfere with NMDA-induced intercellular calcium influx | cell death % [3]: 23.0±1.8% | increase in AP sites after MNNG [4]: completely prevented

— US9623039B2, “Treatment and prevention of pathological conditions using iduna related techniques and compositions” (VALTED, LLC, priority 2010, dated 2017)
